Target: RBBP4, recombinant, for fluorescence polarization (human), Q09028
Assay: fluorescence polarisation; competitive: unlabeled peptide (1.0–0.0 mM series) added to preformed complex of 1 nM FAM tracer and 40 nM RBBP4; 50 mM Tris-HCl pH 7.5, 150 mM NaCl, 0.02% Triton X-100; read after 60 min; ki from IC50

Chain of RBBP4, recombinant, for fluorescence polarization (human), Q09028 (Q09028 whole entry): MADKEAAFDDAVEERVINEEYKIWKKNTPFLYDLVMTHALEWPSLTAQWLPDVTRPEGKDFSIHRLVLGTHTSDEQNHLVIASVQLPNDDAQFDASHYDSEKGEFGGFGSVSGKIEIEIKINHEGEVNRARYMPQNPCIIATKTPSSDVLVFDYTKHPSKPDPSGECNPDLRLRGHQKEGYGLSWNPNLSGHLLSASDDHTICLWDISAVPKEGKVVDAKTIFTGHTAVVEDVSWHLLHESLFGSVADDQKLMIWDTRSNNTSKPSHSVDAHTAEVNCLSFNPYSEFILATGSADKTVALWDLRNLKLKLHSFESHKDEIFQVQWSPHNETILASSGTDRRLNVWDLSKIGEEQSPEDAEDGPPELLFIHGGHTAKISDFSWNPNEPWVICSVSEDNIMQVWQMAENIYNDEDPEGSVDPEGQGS

Ki: 0.019 µM
B1: ZNF512B NIM peptide (unlabeled ZNF512B iNIM) (peptide)
chain: KHRRKQKTPKKF
modifications: not checked

From publication PMC11602157, “ZNF512B binds RBBP4 via a variant NuRD interaction motif and aggregates chromatin in a NuRD complex-independent manner” (Nucleic Acids Research, 2024)
